Source: the RNAGym collection of RNA variant scans (doi:10.1073/pnas.2313332121)

B1: TPR t1 (parent)
chain: GACCAAUCUGCCCUCAGAGCUCGAGAACAUCUUCGGAUGCAGAGGAGGCAGGCUUCGGUGGCGCGAUAGCGCCAACGUCCUCAACCUCCAAUGCAUCCCACCACAUGAUGAUGCCUGAAGAGCCUUGGUUUUUUG

Variants of: B1
Test: polymerase ribozyme fitness, log enrichment relative to wild type (log ratio); higher = more active; in vitro selection for triplet polymerase activity
Summary of the method: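 Mutant libraries of each subunit of a heterodimeric triplet polymerase ribozyme were built by PCR and transcribed. Each library went through one round of in vitro selection in triplicate: annealing with biotinylated primer, partner subunit and triplets, frozen incubation at −7 °C, gel excision of extended constructs, streptavidin-bead capture and RT-PCR. Input and output libraries were Illumina-sequenced; only genotypes with ≥10 input reads and ≥1 read per output were kept. Fitness is log2(genotype enrichment/wild-type enrichment), using inverse-variance-weighted replicate averages.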

Row | Variant | polymerase ribozyme fitness (log ratio)
1 | G35U G61A C98G G107C C115A G120A | -7.51
2 | C31U C49A C123U C124U | -4.12
3 | G36A A43C | -3.56
4 | U32C G117U | -2.41
5 | C34A C82A U112A | -2.63
6 | C34A C72U | -2.58
7 | C31U G36U C73U C82A C86G G113U U133A | -6.04
8 | U33A C88U | -3.66
9 | U32C G63U G113U | -4.99
10 | C31U A37U | -4.07
11 | C34G G120C | -4.78
12 | U32C C85G | -2.56
13 | C34A A74C C89G G113C A118C U131A | -5.57
14 | C34G A111G U129G | -6.92
15 | U32A C70U C115G | -5.23
16 | G36A C53A U54G G120C | 0.74
17 | C31U G120C | -2.93
18 | G36A C64U C72A U106A | -0.401
19 | U32C A119G | 0.645
20 | C34U G52U G69C C79G A100G C114U | -5.24
21 | C31G C94G G113A | -5.38
22 | U32C G48A C102A C123U | -2.5
23 | U32C G39A G42A G52A C70U C88G | -3.93
24 | U32C G35C C53A U78A | -4.25

Row | Variant | polymerase ribozyme fitness (log ratio)
25 | C34A G36U | -4.2
26 | G35A C72G U112C | -2.35
27 | C31G G36U G44A A74U A108U U112G | -7.74
28 | C31U G36U G60C C73U C123U | -4.81
29 | G36A G42A C70U C72U | -4.5
30 | G35U C70U C73A | -7.04
31 | C31A C56A C98A | -5.09
32 | U32A G48A C62U C97U A100U | -7.37
33 | C34U U87A | -4.77
34 | C31G U112A | -5.33
35 | G35C C98A A103C C123U | -5.49
36 | C31A G57A C73U | -6.14
37 | C34A C53A C56A | -2.66
38 | U32G C70U | -7.16
39 | G35U U112A | -2.86
40 | G36A A84C G117A | -2.24
41 | G36A C97G U112G C115U | -5.56
42 | U32C G48U C56A G71U U112G | -4.24
43 | C31U U81A C88G A95U U112A | -6.66
44 | U33A G120U | -5.15
45 | U32C A41U C124G G128A | -1.01
46 | U32C C40U C124A | 1.21
47 | C31G C53A G71U G107C | -1.67
48 | C34U G60U C99U | -3.7

Row | Variant | polymerase ribozyme fitness (log ratio)
49 | G36A C70U | -1.06
50 | U33C G60U | -3.44
51 | U33C G60C | -5.53
52 | C34G G51U C104U | -6.64
53 | G35C C49G C98G | -2.89
54 | U33C G77C | -5.05
55 | C34A C88A U106C C114A | -6.05
56 | G35A G52C C86U | -6.34
57 | C31U C70A G113A C123G C124A | -7.42
58 | G35C C53U C56G G120A | -2.61
59 | C34G G60A C70A A105U G117U U126A U129A U133G | -6.69
60 | G35A U78G | -4.14
61 | C34U U54A G69U C79U G93A U96A | -6.73
62 | G36A | -0.858
63 | G35U U67C U109A C115U | -5.63
64 | U32G C34G C64U C85A G110U | -6.37
65 | C34A G61C A91C A121U U134C | -5.66
66 | C31U G60U | -4.38
67 | G35U C70U C72U G120C | -6.33
68 | U32C A41U G45C C115G | -5.44
69 | C34G G39A C56A G69U C79A A103U C104G G110A C115G | -7.05
70 | U32G C56U U109A C124U | -6.14
71 | C34G A50U G61C A90G G110C | -7.04
72 | U33C A46C | -6.49

Row | Variant | polymerase ribozyme fitness (log ratio)
73 | G35C C97A | -5.43
74 | U32A U33C G77C C102G G107A A121G | -7.93
75 | C34G C53U G60A U87G G110C | -7.9
76 | U33A A46U C97A | -6.45
77 | U32C A83G U87A U106A | -2.71
78 | C31U C88G | -6.51
79 | C31U G127C | -3.6
80 | U33C G52A G58C G69A C104U U109A A111G U112A | -6.93
81 | C34G A43C G60U | -6.09
82 | C34A G48C G77A | -2.78
83 | U33C A37C | -6.92
84 | C34U G71A | -5.88
85 | U32G C49A G63C G117A | -6.8
86 | G35A C73U U78G A90G C115G A121C | -5.51
87 | C31U G135U | -4.94
88 | G36A C97U | -0.157
89 | C31U G71U G120U | -4.2
90 | G35U G63U C101A C115U | -5.79
91 | C34A G60A A103G C124U G135A | -5.23
92 | G35C G63U A74U A90G C123G G127C | -6.64
93 | C31U U112A G113A | -4.76
94 | U30G A95C U96C A105U A111C G120C | -6.71
95 | U33G C34G A103U | -6.38
96 | U33G U130A | -5.01

Row | Variant | polymerase ribozyme fitness (log ratio)
97 | U33G C34G C72G G110A | -6.68
98 | U33A C62G C73A U78G | -5.54
99 | G36A A43C C73G | -4.51
100 | C34U U125A | -4.8
101 | G35C A95U | -4.31
102 | U32C C62U G77C A100C U106G | -3.33
103 | C34A C62A | -4.45
104 | U33C A90C | -6.14
105 | U32C A74G G128C | -2.08
106 | C34G G69U | -2.21
107 | C34U G63U | -4.85
108 | C34U G63A | -3.64
109 | G36A C98U | -3.49
110 | C34A U54A G69U A121G | 1.52
111 | C31A A37G C80G C86U U92C A105U A111U | -7.03
112 | G35A G113A | -4.16
113 | G35A G39A C70U C72U U109G C124U | -7.05
114 | G35U C56U | -4.99
115 | C31A G61A C88U | -5.76
116 | C31G C34U G69U U78C C86U C101A G113U | -7.18
117 | C31A G69U | -2.98
118 | C34A U38A G71U C101U | -5.16
119 | G35C G63A C73A | -5.71
120 | C34A C97A C115G | -4.43

Row | Variant | polymerase ribozyme fitness (log ratio)
121 | U33C C99U C123A | -7.51
122 | U33A C56A | -4.57
123 | U30G U54A U112C | -5.05
124 | G35U G77C C123G | -5.04
125 | C34U A83C | -5.74
126 | C34U C53U C56U | -5.01
127 | C31G G39U C72A U106A G120U | -6.88
128 | C34U A50U | -3.8
129 | C31G C70U C82G G117C | -7.1
130 | C34G A90C U112G | -6.02
131 | U33C C62U C99U C115U | -6.64
132 | U33G C70U G120U | -6.7
133 | C34A U133A | -2.19
134 | C34A C89U G117U | -5.32
135 | U33A G36C C72U | -4.02
136 | C31U U32G G35U G61U A91C A121U | -7
137 | G35U G71U | -5.03
138 | C34A C73G G120A C124G U133A | -1.12
139 | U32C G42A G69U | -0.00577
140 | G36A C56A | -1.03
141 | C34A C101G U129A | -4.66
142 | C31U G36U G60C C123U | -5.45
143 | G35C U38G G63C C123A U129A | -5.52
144 | C34G C40U | -6.15

Row | Variant | polymerase ribozyme fitness (log ratio)
145 | G35A G69C U87G | -5.37
146 | G36A C82G C123U | -0.368
147 | C34A C53A | -2.86
148 | G36A C88A | -1.76
149 | G36A C88G | -2.65
150 | G35A G61C | -5.94
151 | C34U G120A U130A | -4.02
152 | C31U G113A | -3.94
153 | C34A U78C | -2.79
154 | C31G C123U | -7.18
155 | U33G G52C C64G U78A C98A U112G U116G | -7.08
156 | G35U G63A U67G C88A C124A G127C U132A | -7.2
157 | G35C U81A U109A C114A C123G | -5.16
158 | U32C G60C A75C C79G | -1.89
159 | G36A G48U G63U C79G | -5.18
160 | U33A U87A U133G | -4.32
161 | C34G C70U U96A A103U A121C U132C | -7.51
162 | G35C G39U | -5.8
163 | C34G C79U | -5.43
164 | C31U G61U A91C | -5.51
165 | C31U G36A G61A U87A U106A | -2.2
166 | C34A U55G G77A | -4.67
167 | C34U G63C A111C U132A | -4.98
